This passage reports WT koff/mutant koff results from US20190233539A1.

What all share (experiment): BIAcore SPR, koff against wild-type Fc
On the technique in general: In SPR one partner is held on a chip, and binding of the other changes the refractive index at the surface.

The target in one experiment is CD32A^H (UniProt P12318).
Another experiment deals with CD32B (FcγRII-B) (UniProt P31994).
Experiment [1] deals with CD16A with Val at position 158 (human) (UniProt P08637).
For experiment [2], the target named is CD16A with Phe at position 158 (human) (UniProt P08637).
CD16A with Phe at position 158 (human), sequence (P08637 17-208 limits assumed): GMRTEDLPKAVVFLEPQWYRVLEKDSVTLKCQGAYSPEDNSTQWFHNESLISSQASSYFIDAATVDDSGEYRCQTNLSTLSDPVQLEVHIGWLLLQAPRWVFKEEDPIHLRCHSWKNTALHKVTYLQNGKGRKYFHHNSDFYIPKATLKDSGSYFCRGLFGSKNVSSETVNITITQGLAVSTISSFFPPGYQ

CD32B (FcγRII-B), sequence (P31994 43-217 limits assumed): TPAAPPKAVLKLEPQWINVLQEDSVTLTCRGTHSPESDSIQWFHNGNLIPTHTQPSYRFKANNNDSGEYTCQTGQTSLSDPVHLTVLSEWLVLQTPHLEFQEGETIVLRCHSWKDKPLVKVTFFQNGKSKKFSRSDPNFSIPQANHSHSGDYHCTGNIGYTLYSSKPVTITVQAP
CD16A with Val at position 158 (human), sequence (P08637 17-208 F176V limits assumed): as the sequence (P08637 17-208 limits assumed) above, with F160V counted along it
CD32A^H, sequence (P12318 34-217 limits assumed): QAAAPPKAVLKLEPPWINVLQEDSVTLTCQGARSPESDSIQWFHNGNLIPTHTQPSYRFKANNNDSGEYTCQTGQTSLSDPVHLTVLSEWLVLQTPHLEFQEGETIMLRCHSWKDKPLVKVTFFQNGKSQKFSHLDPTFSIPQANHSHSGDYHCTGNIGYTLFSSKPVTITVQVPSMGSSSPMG

For the substance Fc mutant 1 (F243L), the WT koff/mutant koff was 0.6 in the experiment with CD32A^H, 0.8 with CD32B (FcγRII-B) and 4.8 in experiment [1].

On to Fc mutant 2 (D270E), for which the WT koff/mutant koff came out at 2.2 with CD32A^H, 0.4 with CD32B (FcγRII-B) and 1.3 in experiment [1].

Regarding Fc mutant 3 (R292P), the WT koff/mutant koff in experiment [2] came out at 1.6; in the experiment with CD32A^H it was 0.7; with CD32B (FcγRII-B), 0.3; in experiment [1], 2.4.

Fc mutant 4 (S298N) returned a WT koff/mutant koff with CD32B (FcγRII-B) of 0.2.

Regarding Fc mutant 5 (Y300L), the WT koff/mutant koff in experiment [2] stood at 1.2; with CD32A^H, 2.9; with CD32B (FcγRII-B), 1.2.

Consider Fc mutant 6 (V305I), for which the WT koff/mutant koff is 0.6 in experiment [2], 1.3 with CD32A^H, 1.2 with CD32B (FcγRII-B) and 0.9 in experiment [1].

As to Fc mutant 7 (A330V), the WT koff/mutant koff came to 1.2 in experiment [2], 0.4 in the experiment with CD32A^H, 0.3 in the experiment with CD32B (FcγRII-B) and 0.6 in experiment [1].

Fc mutant 8 (P396L): the WT koff/mutant koff with CD32A^H turned out to be 1.6; with CD32B (FcγRII-B), 2.6; in experiment [1], 1.3.

On to Fc mutant 9 (F243L, P396L), for which the figures for the WT koff/mutant koff with CD32A^H and with CD32B (FcγRII-B) were 1.5 and 1.6, respectively.

As to Fc mutant 10 (F243L, R292P), the results for the WT koff/mutant koff (with CD32A^H; with CD32B (FcγRII-B); in experiment [1]) were 0.5, 0.2 and 4, respectively.

In the case of Fc mutant 11 (R292P, V305I), the WT koff/mutant koff was found to be 0.8 in the experiment with CD32A^H and 0.4 with CD32B (FcγRII-B).

On to Fc mutant 12 (F243L, R292P, Y300L), for which the WT koff/mutant koff came to 4.6 in experiment [2], 1 with CD32A^H, 0.6 with CD32B (FcγRII-B) and 7.4 in experiment [1].

Take Fc mutant 13 (F243L, R292P, V305I): the WT koff/mutant koff came out at 1.4 in experiment [2], 0.2 with CD32A^H, 0.1 with CD32B (FcγRII-B) and 2.6 in experiment [1].

For Fc mutant 14 (F243L, R292P, P396L), the results for the WT koff/mutant koff (with CD32A^H; in the experiment with CD32B (FcγRII-B); in experiment [1]) were 1.4, 0.4 and 6.3, respectively.

As for Fc mutant 15 (R292P, V305I, P396L), the WT koff/mutant koff in experiment [2] is 1.9; with CD32A^H it was 1.5; with CD32B (FcγRII-B) it was 0.9; in experiment [1], 1.9.

With “Fc mutant 16 (F243L, R292P, Y300L, P396L)”, the WT koff/mutant koff in experiment [2] worked out at 5.6; with CD32A^H, 1.7; with CD32B (FcγRII-B), 1.1; in experiment [1], 10.1.

For “Fc mutant 17 (F243L, R292P, V305I, P396L)”, the WT koff/mutant koff was 2.3 in experiment [2], 0.8 with CD32A^H, 0.4 with CD32B (FcγRII-B) and 4 in experiment [1].

“Fc mutant 18 (F243L, R292P, Y300L, V305I, P396L)”: the WT koff/mutant koff in experiment [2] amounted to 8.3; with CD32A^H, 3.2; with CD32B (FcγRII-B), 1.4; in experiment [1] it was 10.1.
